Publication PMC4167861, “Mycobacterium tuberculosis Rho Is an NTPase with Distinct Kinetic Properties and a Novel RNA-Binding Subdomain” (PLoS ONE, 2014)

Target: the molecule itself
Assay: cross-linking; 2 ug MtbRho, 0.05% glutaraldehyde, 5 and 10 min at 37 C in T-buffer (KCl instead of K-glutamate), no RNA or ATP; 3.5-8% gradient SDS-PAGE; cross-linked RNAP as marker of ~400 kDa

B1: Mycobacterium tuberculosis Rho (enzyme)
chain: MTDTDLITAGESTDGKPSDAAATDPPDLNADEPAGSLATMVLPELRALANRAGVKGTSGMRKNELIAAIEEIRRQANGAPAVDRSAQEHDKGDRPPSSEAPATQGEQTPTEQIDSQSQQVRPERRSATREAGPSGSGERAGTAADDTDNRQGGQQDAKTEERGTDAGGDQGGDQQASGGQQARGDEDGEARQGRRGRRFRDRRRRGERSGDGAEAELREDDVVQPVAGILDVLDNYAFVRTSGYLPGPHDVYVSMNMVRKNGMRRGDAVTGAVRVPKEGEQPNQRQKFNPLVRLDSINGGSVEDAKKRPEFGKLTPLYPNQRLRLETSTERLTTRVIDLIMPIGKGQRALIVSPPKAGKTTILQDIANAITRNNPECHLMVVLVDERPEEVTDMQRSVKGEVIASTFDRPPSDHTSVAELAIERAKRLVEQGKDVVVLLDSITRLGRAYNNASPASGRILSGGVDSTALYPPKRFLGAARNIEEGGSLTIIATAMVETGSTGDTVIFEEFKGTGNAELKLDRKIAERRVFPAVDVNPSGTRKDELLLSPDEFAIVHKLRRVLSGLDSHQAIDLLMSQLRKTKNNYEFLVQVSKTTPGSMDSD
notes: also called MtbRho; recombinant MtbRho
  stoichiometry N: 6
